Data on 1 substance can be found in publication PMC10961335.

In this test the target is MGF505-4R fused to NanoLuciferase fragment N1 (pDEST-N2H-N1) (African swine fever virus, Georgia 2007/1 strain). Briefly: split reporter (BiFC, NanoBiT).

“swine TRAF3 fused to NanoLuciferase fragment N2 (pDEST-N2H-N2) (natural protein)”: the luminescence score (fold increase over N1-MGF505-4R with empty N2 vector) was determined as 8.5 fold.
